Data published in US20100178280.

T1: acetylated p53 peptides (p53-382/diAc), P04637
T1 chain: RHKK

B1: recombinant mouse Sirt1 protein (protein)
chain: MADEVALALQAAGSPSAAAAMEAASQPADEPLRKRPRRDGPGLGRSPGEPSAAVAPAAAGCEAASAAAPAALWREAAGAAASAEREAPATAVAGDGDNGSGLRREPRAADDFDDDEGEEEDEAAAAAAAAAIGYRDNLLLTDGLLTNGFHSCESDDDDRTSHASSSDWTPRPRIGPYTFVQQHLMIGTDPRTILKDLLPETIPPPELDDMTLWQIVINILSEPPKRKKRKDINTIEDAVKLLQECKKIIVLTGAGVSVSCGIPDFRSRDGIYARLAVDFPDLPDPQAMFDIEYFRKDPRPFFKFAKEIYPGQFQPSLCHKFIALSDKEGKLLRNYTQNIDTLEQVAGIQRILQCHGSFATASCLICKYKVDCEAVRGDIFNQVVPRCPRCPADEPLAIMKPEIVFFGENLPEQFHRAMKYDKDEVDLLIVIGSSLKVRPVALIPSSIPHEVPQILINREPLPHLHFDVELLGDCDVIINELCHRLGGEYAKLCCNPVKLSEITEKPPRPQKELVHLSELPPTPLHISEDSSSPERTVPQDSSVIATLVDQATNNNVNDLEVSESSCVEEKPQEVQTSRNVENINVENPDFKAVGSSTADKNERTSVAETVRKCWPNRLAKEQISKRLEGNQYLFVPPNRYIFHGAEVYSDSEDDVLSSSSCGSNSDSGTCQSPSLEEPLEDESEIEEFYNGLEDDTERPECAGGSGFGADGGDQEVVNEAIATRQELTDVNYPSDKS
B2: recombinant mouse Sirt7 protein (protein)
chain: MAAGGGLSRSERKAAERVRRLREEQQRERLRQVSRILRKAAAERSAEEGRLLAESEDLVTELQGRSRRREGLKRRQEEVCDDPEELRRKVRELAGAVRSARHLVVYTGAGISTAASIPDYRGPNGVWTLLQKGRPVSAADLSEAEPTLTHMSITRLHEQKLVQHVVSQNCDGLHLRSGLPRTAISELHGNMYIEVCTSCIPNREYVRVFDVTERTALHRHLTGRTCHKCGTQLRDTIVHFGERGTLGQPLNWEAATEAASKADTILCLGSSLKVLKKYPRLWCMTKPPSRRPKLYIVNLQWTPKDDWAALKLHGKCDDVMQLLMNELGLEIPVYNRWQDPIFSLATPLRAGEEGSHSRKSLCRSREEAPPGDQSDPLASAPPILGGWFGRGCAKRAKRKKVA

Molecular target: T1, acetylated p53 peptides (p53-382/diAc), …

| Protein | deacetylation of p53 peptides in vitro (fluorometric deacetylation assay) | deacetylation of acetylated p53 peptides in vitro (fluorometric deacetylation assay) |
| --- | --- | --- |
| B1 | Sirt7 and Sirt1 deacetylate p53 peptides in vitro | – |
| B2 | Sirt7 and Sirt1 deacetylate p53 peptides in vitro | p53 acetylated peptides were efficiently deacetylated by Sirt7 in vitro |
